# Legend:
# [1] = biological target: F-actin (G-actin polymerized, filaments stabilized with phalloidin); assay: cosedimentation with 0.5 µM phalloidin-stabilized F-actin, SDS-PAGE of the pellet, hyperbolic fit
# [2] = biological target: actin filaments of D. melanogaster S2 cells (lamellipodial actin ring, patches, filopodia) (D. melanogaster); assay: TIRF imaging of S2 cells before and after blue light
# [3] = biological target: actin filaments of D. melanogaster S2 cells (lamellipodial actin ring, patches, filopodia) (D. melanogaster); assay: TIRF imaging of a fixed S2 cell expressing mCherry-Lifeact stained with Alexa Fluor 488 phalloidin; panel a, lower cell
# [4] = biological target: actin filaments of D. melanogaster S2 cells (lamellipodial actin ring, patches, filopodia) (D. melanogaster); assay: TIRF imaging of a fixed S2 cell expressing mCherry-Lifeact stained with Alexa Fluor 488 phalloidin; panel a, upper cell
# [5] = biological target: actin filaments of D. melanogaster S2 cells (lamellipodial actin ring, patches, filopodia) (D. melanogaster); assay: TIRF imaging of a repeatedly excited S2 cell; actin labeling ratio over time, panel f, recovery after the 3rd excitation
# [6] = biological target: actin filaments of D. melanogaster S2 cells (lamellipodial actin ring, patches, filopodia) (D. melanogaster); assay: TIRF imaging of a repeatedly excited S2 cell; actin labeling ratio over time, panel f, recovery after the 4th excitation
# [7] = biological target: actin filaments of D. melanogaster S2 cells (lamellipodial actin ring, patches, filopodia) (D. melanogaster); assay: cell-based or functional assay
# [8] = biological target: actin filaments of D. melanogaster S2 cells (lamellipodial actin ring, patches, filopodia) (D. melanogaster); assay: TIRF images of an S2 cell before and after blue-light excitation, printed in panel b
# [9] = biological target: actin filaments of D. melanogaster S2 cells (lamellipodial actin ring, patches, filopodia) (D. melanogaster); assay: TIRF imaging of an S2 cell expressing mCherry-LILAC, fixed under blue light and stained with Alexa Fluor 488 phalloidin; panel b, lower cell
# [10] = biological target: actin filaments of D. melanogaster S2 cells (lamellipodial actin ring, patches, filopodia) (D. melanogaster); assay: TIRF image of an S2 cell before blue-light excitation, panel a; outer and inner rings hand traced
# [11] = biological target: actin filaments of D. melanogaster S2 cells (lamellipodial actin ring, patches, filopodia) (D. melanogaster); assay: TIRF imaging of a repeatedly excited S2 cell; actin labeling ratio over time, panel f, recovery after the 1st excitation (black exponential fit)
# [12] = biological target: actin filaments of D. melanogaster S2 cells (lamellipodial actin ring, patches, filopodia) (D. melanogaster); assay: TIRF imaging of a repeatedly excited S2 cell; actin labeling ratio over time, panel f, recovery after the 2nd excitation
# [13] = biological target: actin filaments of D. melanogaster S2 cells (lamellipodial actin ring, patches, filopodia) (D. melanogaster); assay: TIRF imaging of a live S2 cell; actin labeling ratio over time, panel B, recovery after the 2nd blue-light excitation
# [14] = biological target: actin filaments of D. melanogaster S2 cells (lamellipodial actin ring, patches, filopodia) (D. melanogaster); assay: TIRF imaging of a live S2 cell; actin labeling ratio over time, panel B, recovery after the 1st blue-light excitation (black exponential fit drawn on this one)
# [15] = biological target: actin filaments of D. melanogaster S2 cells (lamellipodial actin ring, patches, filopodia) (D. melanogaster); assay: TIRF imaging of a live S2 cell; actin labeling ratio over time, panel B, recovery after the 3rd blue-light excitation
# [16] = biological target: actin filaments of D. melanogaster S2 cells (lamellipodial actin ring, patches, filopodia) (D. melanogaster); assay: TIRF imaging of a live S2 cell; actin labeling ratio over time, panel B, recovery after the 4th blue-light excitation
# [17] = biological target: actin filaments of D. melanogaster S2 cells (lamellipodial actin ring, patches, filopodia) (D. melanogaster); assay: TIRF image of the same S2 cell after blue-light excitation, panel b; outer and inner rings hand traced
# [18] = biological target: actin filaments of D. melanogaster S2 cells (lamellipodial actin ring, patches, filopodia) (D. melanogaster); assay: TIRF imaging of an S2 cell expressing mCherry-LILAC, fixed under blue light and stained with Alexa Fluor 488 phalloidin; panel b, upper cell
molecule,measurement,setting,value
"mCherry-Lifeact, expressed in E. coli and purified (6×His-mCherry-TEV-Lifeact from the pET21-mCherry-Lifeact vector) (from UniProt Q08641 1-17)",Kd,[1],3.9 µM
mCherry-Lifeact expressed in Drosophila S2 cells (pMT-mCherry-Lifeact vector) (from UniProt Q08641 1-17),"switching ratio (fold change of the actin labeling ratio, post/pre-excitation)",[2],1
same,r (Pearson's correlation coefficient with the phalloidin image),[3],0.89
same,r (Pearson's correlation coefficient with the phalloidin image),[4],0.83
"mCherry-LILAC expressed in Drosophila S2 cells (pMT vector) (designed binder, not shown: large carriers) GGSGGSGGSGEFLATTLERIEKNFVITDPRLPDNPIIFASDSFLQLTEYSREEILGRNCRFLQGPETDRATVRKIRDAIDNQTEVTVQLINYTKSGKKFWNLFHLQPMRDQKGDVQYFIGVQLDGTEHVRDAAEREAVMLAKKTAEEIDEAAMGVADLIKKFESISKEE",τ (time constant of the decay of the actin labeling ratio after excitation),[5],61 s
same,τ (time constant of the decay of the actin labeling ratio after excitation),[6],59 s
same,"dark state recovery time constant, from actin labeling ratio traces",[7],63 s
same,"ASR (actin switching ratio, ALR post / ALR pre)",[8],2.02
same,r (Pearson's correlation coefficient with the phalloidin image),[9],0.62
same,"ALR (actin labeling ratio, intensity outer / intensity inner)",[10],0.39
same,τ (time constant of the decay of the actin labeling ratio after excitation),[11],71 s
same,τ (time constant of the decay of the actin labeling ratio after excitation),[12],73 s
same,τ (time constant of the decay of the actin labeling ratio after excitation),[13],73 s
same,τ (time constant of the decay of the actin labeling ratio after excitation),[14],71 s
same,τ (time constant of the decay of the actin labeling ratio after excitation),[15],61 s
same,"switching ratio (fold change of the actin labeling ratio, post/pre-excitation)",[2],1.6
same,τ (time constant of the decay of the actin labeling ratio after excitation),[16],59 s
same,"ALR (actin labeling ratio, intensity outer / intensity inner)",[17],0.79
same,r (Pearson's correlation coefficient with the phalloidin image),[18],0.6
"mCherry-LILAC T406A/T407A expressed in Drosophila S2 cells (pMT vector) (designed binder, not shown: large carriers) GGSGGSGGSGEFLAAALERIEKNFVITDPRLPDNPIIFASDSFLQLTEYSREEILGRNCRFLQGPETDRATVRKIRDAIDNQTEVTVQLINYTKSGKKFWNLFHLQPMRDQKGDVQYFIGVQLDGTEHVRDAAEREAVMLAKKTAEEIDEAAMGVADLIKKFESISKEE","dark state recovery time constant, from actin labeling ratio traces",[7],50 s
"mCherry-LILAC I539E, expressed in E. coli and purified (6×His-mCherry-TEV-LILAC with I539E, pET21) (designed binder, not shown: large carriers; small tags and cut ends) HHHHHHGEFLATTLERIEKNFVITDPRLPDNPIIFASDSFLQLTEYSREEILGRNCRFLQGPETDRATVRKIRDAIDNQTEVTVQLINYTKSGKKFWNLFHLQPMRDQKGDVQYFIGVQLDGTEHVRDAAEREAVMLAKKTAEEEDEAAMGVADLIKKFESISKEE",Kd,[1],3.4 µM
"mCherry-LILAC I539E expressed in Drosophila S2 cells (pMT vector) (designed binder, not shown: large carriers) GGSGGSGGSGEFLATTLERIEKNFVITDPRLPDNPIIFASDSFLQLTEYSREEILGRNCRFLQGPETDRATVRKIRDAIDNQTEVTVQLINYTKSGKKFWNLFHLQPMRDQKGDVQYFIGVQLDGTEHVRDAAEREAVMLAKKTAEEEDEAAMGVADLIKKFESISKEE","switching ratio (fold change of the actin labeling ratio, post/pre-excitation)",[2],1

# Reference: patent US20240410901A1
